From patent publication US20250170263A1 (AbbVie / Abbott, published 2025)

How the values were obtained:
[1] = target: mutEGFR on NCI-H1650 (non-small cell lung cancer) cells (human); experiment: cell-based or functional assay
[2] = target: T1, wt EGFR overexpressed on the surface of A431 (A-431, human epidermoid carcinoma) cells (human, UniProt P00533 25-1210); experiment: cell-based or functional assay
[3] = target: T1, wt EGFR overexpressed on the surface of …; experiment: cell-based or functional assay; remark: listed apart in the source
[4] = target: T2, wild-type EGFR extra-cellular domain (ECD), EGFR (1-645)-LESRGPF-Myc-NMHTG-6His (human, UniProt P00533 25-645); experiment: SPR, Biacore T200, ADC captured by anti-Fc, EGFR ECD as analyte
T2 construct: Recombinant soluble ECD secreted from HEK293 cells; also called hEGFR WT; EGFR(h)(1-645); not shown: Myc tag
Method: (§1) Binding kinetics for AM2 and AM2-AAA for recombinant soluble EGFR extracellular domains (ECDs) were determined by surface plasmon resonance-based measurements made on a Biacore T200 instrument (GE Healthcare) at 25° C. using an anti-Fc capture assay approach. Recombinant soluble ECDs for the three isoforms of EGFR were expressed from transiently transfected HEK293 cells as secreted proteins with a C-terminal myc and histidine tag, and purified by Ni-IMAC (immobilized metal affinity chromatography) and SEC. […]
(§2) Chip preparation and binding kinetic measurements were made in the assay buffer HBS-EP+ (10 mM Hepes, pH 7.4, 150 mM NaCl, 3 mM EDTA, 0.05% Tween 20). […] For binding kinetics measurements each assay cycle consisted of the following steps: (1) capture of test antibody on test surface only; (2) analyte injection (EGFR ECD or buffer only) over both reference and test surface (240 μL at 80 μl/min), after which the dissociation was monitored for 900 seconds at 80 μl/min; (3) regeneration of the capture surface by 10 mM Glycine-HCl, pH 1.5 injections over both reference and test surface. […]

[5] = target: T3, EGFRvIII (hEGFR de2-7) [EGFR(H)(1-29)-G-(298-645)], EGFR(h)(1-29)-G-(298-645)-LESRGPF-Myc-NMHTG-6His (human, UniProt P00533 298-645); experiment: SPR, Biacore T200, 25 C, anti-Fc capture of ADC, EGFR ECD as analyte, 1:1 model
T3 construct: Recombinant soluble ECD secreted from HEK293 cells; not shown: Myc tag
Method: (§3) Binding kinetics for AM2 and AM2-AAA for recombinant soluble EGFR extracellular domains (ECDs) were determined by surface plasmon resonance-based measurements made on a Biacore T200 instrument (GE Healthcare) at 25° C. using an anti-Fc capture assay approach. Recombinant soluble ECDs for the three isoforms of EGFR were expressed from transiently transfected HEK293 cells as secreted proteins with a C-terminal myc and histidine tag, and purified by Ni-IMAC (immobilized metal affinity chromatography) and SEC. In particular, the EGFR ECD tested included amino acids 1-645 of EGFR fused to a myc and histidine tag [(EGFR (1-645)-LESRGPF-Myc-NMHTG-6His (“LESRGPF” (SEQ ID NO: 27))]. The EGFRvIII variant was also fused to a myc and histidine tag (EGFR(h)(1-29)-G-(298-645)-LESRGPF-Myc-NMHTG-6His), as was the ECD EGFR 1-525 [EGFR1(h)(1-525)]-LESRGPF-Myc-NMHTG-6His (“LESRGPF” (SEQ ID NO: 28))]. All ECDs were expressed with the signal sequence […] which was cleaved during secretion.
(§4) Chip preparation and binding kinetic measurements were made in the assay buffer HBS-EP+ (10 mM Hepes, pH 7.4, 150 mM NaCl, 3 mM EDTA, 0.05% Tween 20). For anti-Fc capture chip preparation, approximately 2000 RU of goat anti-human IgG Fc polyclonal antibody (Thermo Fisher Scientific Inc., cat. 31125), diluted to 25 μg/mL in 10 mM sodium acetate (pH 4.5) was directly immobilized across a CM5 biosensor chip using a standard amine coupling kit according to manufacturer's instructions and procedures (GE Healthcare). Unreacted moieties on the biosensor surface were blocked with ethanolamine. For binding kinetics measurements each assay cycle consisted of the following steps: (1) capture of test antibody on test surface only; (2) analyte injection (EGFR ECD or buffer only) over both reference and test surface (240 μL at 80 μl/min), after which the dissociation was monitored for 900 seconds at 80 μl/min; (3) regeneration of the capture surface by 10 mM Glycine-HCl, pH 1.5 injections over both reference and test surface.
(§5) For kinetic determinations, analytes were randomized 3-fold dilution series from 3 uM top dose. During the assay, all measurements were referenced against the capture surface alone (i.e., with no captured test antibody) and buffer-only injections were used for secondary referencing.

[6] = target: T4, truncated wild-type EGFR 1-525, [EGFR1(h)(1-525)]-LESRGPF-Myc-NMHTG-6His (human, UniProt P00533 25-525); experiment: as above
T4 construct: Recombinant soluble truncated ECD secreted from HEK293 cells; also called EGFRs1-501; ECD EGFR 1-525; not shown: Myc tag
Method: as §3, §4, §5

[7] = target: T1, wt EGFR overexpressed on the surface of …; experiment: FACS on A-431 cells, 1 h at 4 C, AlexaFluor 488 secondary antibody, geometric mean fluorescence
Method: To assay binding of AM2-AAA to cell surface overexpressed wt EGFR and to mutant forms of EGFR including the activating mutations found in NSCLC (mutEGFR), tumor cells overexpressing wt EGFR (A431) and mutEGFR (NCI-H1650) were assessed by fluorescence activated cell sorting (FACS).
Cells were harvested from flasks when at approximately 1.5×10⁶ cells/mL. Cells were washed once in PBS/1% FBS (FACS buffer) then resuspended at 2.5×10⁶ cells/mL in FACS buffer. 50 μL of cells were added to a round bottom 96-well plate. 50 μL of a 2× concentration of mAb/ADC (final concentrations are indicated in the figures) was added to wells and the plate was incubated at 4° C. for one hour. The cells were washed twice in FACS buffer and resuspended in 50 μL of a 1:100 dilution of secondary Ab (AlexaFluor 488, Invitrogen, 11013) diluted in FACS buffer. The plate was incubated at 4° C. for one hour and washed twice with FACS buffer. Cells were resuspended in 100 μL of PBS/1% formaldehyde and analyzed on a Becton Dickinson FACSCanto II flow cytometer. Data was analyzed using WinList flow cytometry analysis software.

[8] = target: T2, wild-type EGFR extra-cellular domain …; experiment: SPR, Biacore T200, antibody captured by anti-Fc, EGFR ECD as analyte
Method: as §1, §2

[9] = target: T3, EGFRvIII (hEGFR de2-7) …; experiment: SPR, Biacore T200, 25 C, anti-Fc capture of antibody, EGFR ECD as analyte, 1:1 model
Method: as §3, §4, §5

[10] = target: T4, truncated wild-type EGFR 1-525, …; experiment: as above
Method: as §3, §4, §5

B1: AM2-AAA ADC (antibody, human IgG1, kappa, L234A L235A, DAR 2, V domains shown)
VH: EVQLQESGPGLVKPSQTLSLTCTVSGYSISNDFAWNWIRQPPGKGLEWMGYISYKGNTRYQPSLKSRITISRDTSKNQFFLKLNSVTAADTATYYCVTASRGFPWWGQGTLVTVSS
VL: DIQMTQSPSSMSVSVGDRVTITCHSSQDINSNIGWLQQKPGKSFKGLIYHGTNLDDGVPSRFSGSGSGTDYTLTISSLQPEDFATYYCVQYAQFPWTFGGGTKLEIKR
modifications: AAA synthon (Bcl-xL inhibitor drug-linker) conjugated through C220 of the heavy chain (i.e., C219 of SEQ ID NO: 1); average DAR 2
notes: Antibody-drug conjugate: the AM2 antibody conjugated to the AAA synthon, average DAR 2; The conjugation site (C220) is stated only in the summary and embodiments
IC50 (read off the curve), % Bim bound to BCL-xl in NCI-H1650 cells [1]: ~20 nM | IC50 (read off the curve), % Bim bound to BCL-xl in A-431 cells [2]: ~3 nM | EC50 (read off the curve), caspase 3/7 activity fold change in A431 cells [3]: ~7 nM | binding result [4]: no binding (tested: 3 µM top dose) | Kd [5]: 4.9 nM | koff [5]: 0.00017 s⁻¹ | kon [5]: 35000 M⁻¹ s⁻¹ | Kd [6]: 400 nM | koff [6]: 0.0012 s⁻¹ | kon [6]: 2900 M⁻¹ s⁻¹ | EC50 (read off the curve) [7]: ~100 nM

B2: AM2 antibody (antibody, human IgG1, kappa, L234A L235A, V domains shown)
VH: B1 VH
VL: B1 VL
notes: Humanized IgG1, z,a allotype, with the LALA mutation (L234A, L235A) and LC:C214A (C6v1); Expressed in HEK293 cells; also called EGFR AM2 antibody
binding result [8]: no binding (tested: 3 µM top dose) | EC50 (read off the curve) [7]: ~80 nM | Kd [9]: 5 nM | koff [9]: 0.00017 s⁻¹ | kon [9]: 33000 M⁻¹ s⁻¹ | Kd [10]: 420 nM | koff [10]: 0.0012 s⁻¹ | kon [10]: 2800 M⁻¹ s⁻¹
